Measurements published in patent publication US20040209282A1.

What was measured:
[1] = target: 38C13 IgM surface receptor (idiotype receptor) of 38C13 B lymphoma cells; test: cell capture microarray, previously frozen 38C13 cells, microscopy
[2] = target: 38C13 IgM surface receptor (idiotype receptor) of 38C13 B lymphoma cells; test: cell capture microarray, 38C13 cells growing in culture, no washing, microscopy
[3] = target: 38C13 IgM surface receptor (idiotype receptor) of 38C13 B lymphoma cells; test: antibody microarray probed with 38C13 cell extract, goat anti-mouse IgM-HRP detection
[4] = target: purified IgM antibody (38C13); test: antibody microarray on FAST slide, goat anti-mouse IgM-HRP detection, chemiluminescence

- lowest printed antibody concentration at which bound cells were detected [1]: 6.25 µg/mL
- lowest printed antibody concentration at which bound cells were detected [2]: 3.12 µg/mL
- extract dilution at which 38C13 IgM was detected (fold dilution (1:x)) [3]: 2000
- lowest printed S1C5 concentration at which 38C13 IgM of the extract was detected [3]: 50 µg/mL
- IgM concentration at which a strong signal was seen [4]: 0.1 µg/mL
- lowest spotted S1C5 concentration giving a strong signal [4]: 25 µg/mL
Substance: S1C5 anti-idiotype monoclonal antibody (anti-IgM antibody)
